# Test results from US7148006.
# B1: wild type human PKR, full length (aa 1-551) (protein)
# chain: MAGDLSAGFFMEELNTYRQKQGVVLKYQELPNSGPPHDRRFTFQVIIDGREFPEGEGRSKKEAKNAAAKLAVEILNKEKKAVSPLLLTTTNSSEGLSMGNYIGLINRIAQKKRLTVNYEQCASGVHGPEGFHYKCKMGQKEYSIGTGSTKQEAKQLAAKLAYLQILSEETSVKSDYLSSGSFATTCESQSNSLVTSTLASESSSEGDFSADTSEINSNSDSLNSSSLLMNGLRNNQRKAKRSLAPRFDLPDMKETKYTVDKRFGMDFKEIELIGSGGFGQVFKAKHRIDGKTYVIKRVKYNNEKAEREVKALAKLDHVNIVHYNGCWDGFDYDPETSDDSLESSDYDPENSKNSSRSKTKCLFIQMEFCDKGTLEQWIEKRRGEKLDKVLALELFEQITKGVDYIHSKKLIHRDLKPSNIFLVDTKQVKIGDFGLVTSLKNDGKRTRSKGTLRYMSPEQISSQDYGKEVDLYALGLILAELLHVCDTAFETSKFFTDLRDGIISDIFDKKEKTLLQKLLSKKPEDRPNTSEILRTLTVWKKSPEKNERHTC
# Experiments:
# [1] = biological target: GST (glutathione-S-transferase alone) [GST: P08515]
# [2] = biological target: T1, GST-NS5A (HCV-1a NS5A aa 1-427 fused in frame with glutathione-S-transferase), P26664
# T1 chain: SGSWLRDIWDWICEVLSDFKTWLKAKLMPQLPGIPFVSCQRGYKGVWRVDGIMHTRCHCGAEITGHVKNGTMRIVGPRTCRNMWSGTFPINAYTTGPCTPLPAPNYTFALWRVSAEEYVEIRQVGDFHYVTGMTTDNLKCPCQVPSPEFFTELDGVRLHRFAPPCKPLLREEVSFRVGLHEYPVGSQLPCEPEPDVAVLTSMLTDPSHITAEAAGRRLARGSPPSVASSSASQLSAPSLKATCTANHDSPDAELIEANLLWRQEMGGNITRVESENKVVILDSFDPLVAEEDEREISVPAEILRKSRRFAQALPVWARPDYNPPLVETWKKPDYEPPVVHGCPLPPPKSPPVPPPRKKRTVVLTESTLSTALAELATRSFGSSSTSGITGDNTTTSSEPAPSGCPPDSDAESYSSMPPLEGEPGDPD
# [3] = biological target: T2, NS5A 1a-wt (full-length NS5A from IFN-resistant HCV-1a, untagged), P26664
# T2 chain: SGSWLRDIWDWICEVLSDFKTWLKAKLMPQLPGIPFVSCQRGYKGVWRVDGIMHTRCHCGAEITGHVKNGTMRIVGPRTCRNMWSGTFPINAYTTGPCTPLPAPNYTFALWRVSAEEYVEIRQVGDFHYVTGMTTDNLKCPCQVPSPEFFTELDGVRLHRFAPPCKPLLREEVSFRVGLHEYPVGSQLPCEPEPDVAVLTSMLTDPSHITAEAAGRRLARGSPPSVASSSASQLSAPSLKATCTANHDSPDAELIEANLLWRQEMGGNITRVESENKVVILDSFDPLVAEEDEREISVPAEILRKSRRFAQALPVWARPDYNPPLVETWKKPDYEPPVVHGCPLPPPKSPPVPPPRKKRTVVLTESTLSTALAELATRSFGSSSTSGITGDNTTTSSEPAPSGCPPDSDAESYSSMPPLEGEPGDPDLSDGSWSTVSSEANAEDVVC
# [4] = biological target: NS5A 1b-2 (untagged, expressed from pYES-NS5A 1b-2)
# [5] = biological target: NS5A 1b-4 (untagged, expressed from pYES-NS5A 1b-4)
# [6] = biological target: NS5A 1b-5 (untagged, expressed from pYES-NS5A 1b-5)
# [7] = biological target: NS5A 1b-wt (untagged, expressed from pYES-NS5A 1b-wt)
# [8] = biological target: vaccinia virus K3L protein, P18378
protein,measurement,setting,value
B1,"PKR autophosphorylation and phosphorylation of an exogenous histone substrate, in vitro kinase assay",[1],Equal molar levels of GST had no effect upon PKR activity
same,"PKR autophosphorylation and phosphorylation of an exogenous histone substrate, in vitro kinase assay",[2],as little as 0.2 pmol of NS5A can inhibit 1.8 pmol of PKR
same,"level of basally phosphorylated eIF-2α relative to total (isoelectric focusing, densitometry)",[3],"NS5A, 9.8% (lane 2)"
same,level of unphosphorylated eIF-2α in yeast RY1-1 over vector control,[3],approximately an 11-fold increase in the level of unphosphorylated eIF-2α
same,eIF-2α serine 51 phosphorylation in yeast RY1-1 (isoelectric focusing immunoblot),[4],"possessed predominantly the hyper-phosphorylated isoform of eIF-2α, similar to the vector control strain"
same,eIF-2α serine 51 phosphorylation in yeast RY1-1 (isoelectric focusing immunoblot),[5],"possessed predominantly the hyper-phosphorylated isoform of eIF-2α, similar to the vector control strain"
same,eIF-2α serine 51 phosphorylation in yeast RY1-1 (isoelectric focusing immunoblot),[6],"possessed predominantly the hyper-phosphorylated isoform of eIF-2α, similar to the vector control strain"
same,eIF-2α serine 51 phosphorylation in yeast RY1-1 (isoelectric focusing immunoblot),[7],exhibited a significant reduction in the level of hyper-phosphorylated eIF-2α
same,"level of basally phosphorylated eIF-2α relative to total (isoelectric focusing, densitometry)",[8],"K3L, 11.7% (lane 3)"
